Ends that are not written are not given here. Peptide text beside a SMILES is read from it.
T1: FKBP51 (Homo sapiens, UniProt Q13451)
T1 sequence (Q13451 1-457): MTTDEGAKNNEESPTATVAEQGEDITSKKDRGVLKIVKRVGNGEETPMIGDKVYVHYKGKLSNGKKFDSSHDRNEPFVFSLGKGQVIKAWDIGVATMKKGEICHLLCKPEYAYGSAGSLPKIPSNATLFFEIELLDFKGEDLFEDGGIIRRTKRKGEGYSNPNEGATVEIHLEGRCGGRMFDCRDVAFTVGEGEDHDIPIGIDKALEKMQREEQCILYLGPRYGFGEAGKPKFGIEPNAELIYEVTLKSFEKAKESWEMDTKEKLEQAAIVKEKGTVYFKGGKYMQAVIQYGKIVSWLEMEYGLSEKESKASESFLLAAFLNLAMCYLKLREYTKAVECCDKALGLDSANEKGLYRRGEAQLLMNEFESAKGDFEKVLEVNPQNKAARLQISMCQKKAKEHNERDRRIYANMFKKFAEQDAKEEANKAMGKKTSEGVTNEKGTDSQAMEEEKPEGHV

T2: AIP (Homo sapiens, UniProt O00170)
T2 sequence (O00170 1-330): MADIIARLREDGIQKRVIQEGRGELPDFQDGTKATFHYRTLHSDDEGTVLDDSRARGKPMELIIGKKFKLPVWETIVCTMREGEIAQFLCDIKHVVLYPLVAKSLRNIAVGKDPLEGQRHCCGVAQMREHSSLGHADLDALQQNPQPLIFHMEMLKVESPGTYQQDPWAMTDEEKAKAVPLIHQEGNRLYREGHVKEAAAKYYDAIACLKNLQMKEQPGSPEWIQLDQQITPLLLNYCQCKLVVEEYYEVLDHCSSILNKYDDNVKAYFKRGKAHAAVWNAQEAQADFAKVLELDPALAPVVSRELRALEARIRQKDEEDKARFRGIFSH

T3: Tom70(94–608) (UniProt O94826 94-608)
T3 construct: mitochondrial import receptor Tom70, residues 94-608 as the primers are named; the reverse primer codes for ...KPPTL-stop; source: dot blots used GST-tag-free proteins
T3 sequence (looked up): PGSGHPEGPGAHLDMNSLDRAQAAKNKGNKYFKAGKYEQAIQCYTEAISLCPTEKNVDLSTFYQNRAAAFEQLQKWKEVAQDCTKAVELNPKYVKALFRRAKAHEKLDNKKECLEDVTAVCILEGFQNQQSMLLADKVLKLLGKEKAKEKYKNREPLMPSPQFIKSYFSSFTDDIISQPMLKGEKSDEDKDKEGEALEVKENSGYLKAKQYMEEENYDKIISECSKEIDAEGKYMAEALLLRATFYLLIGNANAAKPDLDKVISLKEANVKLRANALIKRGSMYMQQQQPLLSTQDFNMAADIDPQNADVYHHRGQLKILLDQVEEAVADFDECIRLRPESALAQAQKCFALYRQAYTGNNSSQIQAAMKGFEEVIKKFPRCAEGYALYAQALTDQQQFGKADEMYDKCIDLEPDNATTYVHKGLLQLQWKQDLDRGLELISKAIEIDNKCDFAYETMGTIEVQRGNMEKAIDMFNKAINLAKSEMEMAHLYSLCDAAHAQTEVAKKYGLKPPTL

T4: AIP (human, UniProt O00170 1-330)
T4 construct: GST-tag-free protein spotted on nitrocellulose; also called nitrocellulose-immobilized AIP; source: E. coli BL21, purified as GST fusion (GSTrap), GST removed with PreScission protease
T4 sequence (looked up): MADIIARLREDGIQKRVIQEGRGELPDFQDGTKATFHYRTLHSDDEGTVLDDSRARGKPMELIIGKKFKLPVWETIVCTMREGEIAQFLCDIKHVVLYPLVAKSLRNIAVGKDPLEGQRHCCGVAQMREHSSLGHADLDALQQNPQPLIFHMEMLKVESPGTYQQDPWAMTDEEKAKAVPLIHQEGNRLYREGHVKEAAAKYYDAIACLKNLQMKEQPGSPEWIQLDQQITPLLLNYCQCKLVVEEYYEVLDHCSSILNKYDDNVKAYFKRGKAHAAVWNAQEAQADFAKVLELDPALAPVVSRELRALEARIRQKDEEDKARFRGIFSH

T5: FKBP51 (human, UniProt Q13451 1-457)
T5 construct: GST-tag-free protein spotted on nitrocellulose; also called immobilized FKBP51; source: E. coli BL21, purified as GST fusion (GSTrap), GST removed with PreScission protease
T5 sequence (looked up): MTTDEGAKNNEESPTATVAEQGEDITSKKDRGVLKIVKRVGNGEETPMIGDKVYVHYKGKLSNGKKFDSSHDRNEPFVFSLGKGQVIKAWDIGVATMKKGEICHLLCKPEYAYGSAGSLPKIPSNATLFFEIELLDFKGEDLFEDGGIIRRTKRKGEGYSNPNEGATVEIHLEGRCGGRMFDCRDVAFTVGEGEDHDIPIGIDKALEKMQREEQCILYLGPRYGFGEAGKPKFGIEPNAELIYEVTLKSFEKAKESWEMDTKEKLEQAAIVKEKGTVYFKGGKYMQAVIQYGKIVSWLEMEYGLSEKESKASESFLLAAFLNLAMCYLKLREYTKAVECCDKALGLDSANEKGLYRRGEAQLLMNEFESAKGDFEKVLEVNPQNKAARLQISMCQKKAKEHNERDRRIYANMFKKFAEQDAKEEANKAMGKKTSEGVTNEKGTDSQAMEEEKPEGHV


How the values were obtained:
[1] = target: T1, FKBP51; test: Dot-blot competition assay: HRP-conjugated peptide vs unlabeled peptide on immobilized FKBP51
Description: (§1) Full‐length cDNA clones for respective proteins were obtained from IMAGE consortium (SourceBioScience, Nottingham, UK) and PCR amplified with forward and reverse primers (Table 1) containing overhangs with appropriate restriction sites and cloned into pGEX6 vectors (GE Healthcare, Uppsala, Sweden). Inserts were sequence verified, and the plasmids were transformed into BL21 Escherichia coli strain. Glutathione‐S‐transferase (GST) fusion proteins were purified from 1 L overnight culture after 2 h of induction with 1 mM IPTG. Cells were pelleted, resuspended in 1× PBS and sonicated 3 × 20 s on ice. EDTA and protease inhibitor cocktail were added to prevent proteolysis. The suspension was centrifuged for 30 min at 50 000 g to remove cell debris, and supernatant was loaded onto a 1 mL GSTrap™ 4B column (GE Healthcare). After column washing with 30 mL PBS, GST fusion proteins were eluted with 2.5 mL 10 mM glutathione in PBS. Eluate was passed through a PD‐10 column (GE Healthcare) to remove free glutathione. To prepare GST‐tag‐free proteins, we performed overnight cleavage at 4 °C with PreScission protease (GE Healthcare) followed by passage through a GSTrap column to remove free GST protein. Average yield from 1 L starting culture was 1–5 mg of purified proteins. Protein‐containing fractions were collected, checked with SDS/PAGE and kept at −20 °C.
(§2) Peptides were dissolved in HEPES‐KOH buffer pH 7.2 at concentration of 1 mg·mL^−1 and incubated with equimolar amounts of activated horseradish peroxidase (HRP) (Lightning‐link® HRP labeling kit cat. 701‐004, from Innova Biosciences) for 5 min. Reaction was quenched with 0.1 M Tris/HCl, pH 7.5 for 10 min and the products were passed through PD‐10 columns (GE Healthcare). Dot‐blot experiments were performed using GST‐tag‐free proteins applied to the nitrocellulose membrane. After blocking of membrane with 3% BSA in TBS‐T buffer for 1 h and subsequent wash with TBS‐T, HRP‐conjugated peptides (1 × 500 times dilution) were applied and incubated for 1 h. After subsequent washing (3 × 10 min, TBS‐T), membrane was dried and signals were quantified using a digital Fujifilm LAS3000 imager and LAS3000 software. In competition experiments, increasing concentrations of unlabeled peptides were co‐incubated with peptide–HRP conjugates.
(§3) Each peptide was separately coupled to HRP.

[2] = target: T2, AIP; test: Dot-blot competition assay: HRP-conjugated peptide vs unlabeled peptide on nitrocellulose-immobilized AIP
Description: as §1, §2, §3

[3] = tested on: Tom70; test: Dot-blot assay of Tom70 with HRP-conjugated Hsp90 and Tom20 peptides in presence of unconjugated peptides; format: binding, human; settings: 20 μM unconjugated peptide
Description: In subsequent experiments, non‐fluorescent peptides were used. […] Cell impermeable Hsp90 peptide served as a treatment control.
Figure 6 In vitro and in situ analysis of interactions of 10‐amino‐acid peptides corresponding to C termini of Hsp90 and Tom20 with Tom70. (A) Dot‐blot assay of interactions between Tom70 and HRP‐conjugated 10‐amino‐acid peptides corresponding to C termini of Hsp90 and Tom20 in the presence of 20 μM of unconjugated peptides. (B) Fluorescence imaging of HEK293 cells in the presence of 20 μM of fluorescein‐labeled Hsp90, R9–Hsp90, Tom20 and R9–Tom20 peptides. (C) Inhibition of Tom20–Tom70 and Hsp90–Tom70 interactions with R9–Hsp90 and R9–Tom20 in HEK293 cells measured by PLA. n = 3. Graphs were created and SD values were calculated using PRISM, version 7.02. *P‐value < 0.05 compared to control; comparisons are based on one‐way ANOVA. (D) Inhibition of Tom20–Tom70 and Hsp90–Tom70 interactions with R9–Hsp90 and R9–Tom20 in HEK293 cells measured by mammalian two‐hybrid assay. n = 3. Graphs were created and SD values were calculated using PRISM, version 7.02. *P‐value < 0.05 compared to control; comparisons are based on one‐way ANOVA.

[4] = target: T3, Tom70(94–608); test: far-Western, overlay or dot blot; Tom70 on nitrocellulose, probed with HRP-conjugated Hsp90 or Tom20 peptide in the presence of 20 μM of unconjugated peptides; settings: both partners purified
[5] = target: T4, AIP; test: far-Western, overlay or dot blot; GST-tag-free FKBP51 or AIP on nitrocellulose, blocked with 3% BSA in TBS-T, probed 1 h with HRP-conjugated peptide, alone or with increasing concentrations of unlabeled peptide; luminescence quantified; IC50 estimated; n = 3; settings: both partners purified
[6] = target: T5, FKBP51; test: as above; settings: both partners purified

Row | Molecule | IC50 [1] [µM] | IC50 [2] [µM] | IC50 [5] [µM] | IC50 [6] [µM] | further results
1 | CC(C)C[C@H](NC(=O)[C@H](CC(=O)O)NC(=O)[C@H](Cc1ccc(O)cc1)NC(=O)[C@H](CC(C)C)NC(=O)[C@H](CC(C)C)NC(=O)[C@H](CO)NC(=O)[C@H](CC(N)=O)NC(=O)[C@H](CCC(N)=O)NC(=O)[C@@H](N)Cc1ccccc1)C(=O)N[C@@H](CC(=O)O)C(=O)O [DNAAF2] (H-FQNSLLYDLD-OH) | 25.6 ± 1.54 | 8.47 ± 0.43 | – | – | –
2 | CC[C@H](C)[C@H](NC(=O)[C@@H](NC(=O)[C@@H]1CCCN1C(=O)CNC(=O)[C@H](CO)NC(=O)CN)[C@@H](C)O)C(=O)N[C@@H](CCC(=O)O)C(=O)N[C@@H](CCC(=O)O)C(=O)N[C@H](C(=O)N[C@@H](CC(=O)O)C(=O)O)C(C)C [Hsp70.1] | 27.6 ± 2.85 | 10.6 ± 1 | – | – | –
3 | CSCC[C@H](NC(=O)[C@H](CC(N)=O)NC(=O)[C@@H](NC(=O)[C@H](CO)NC(=O)[C@H](CC(N)=O)NC(=O)[C@H](CCCCN)NC(=O)[C@@H](N)CCC(=O)O)C(C)C)C(=O)N[C@@H](CC(=O)O)C(=O)N[C@@H](CC(C)C)C(=O)N[C@@H](CC(=O)O)C(=O)O [Hsp105] (H-EKNSVNMDLD-OH) | 42.8 ± 4.16 | 8.64 ± 0.8 | – | – | –
4 | CC(C)C[C@H](NC(=O)[C@H](CO)NC(=O)[C@H](CCC(N)=O)NC(=O)[C@@H]1CCCN1C(=O)[C@H](CCC(=O)O)NC(=O)[C@H](C)N)C(=O)N[C@@H](CC(=O)O)C(=O)NCC(=O)N[C@H](C(=O)N[C@@H](CC(=O)O)C(=O)O)C(C)C [NADSYN1] (H-AEPQSLDGVD-OH) | 28.2 ± 1.96 | 9.74 ± 0.72 | – | – | –
5 | CC(C)C[C@H](NC(=O)[C@H](CO)NC(=O)[C@H](CCC(N)=O)NC(=O)[C@H](C)N)C(=O)N[C@@H](C)C(=O)N[C@@H](CCC(=O)O)C(=O)N[C@@H](CC(=O)O)C(=O)N[C@@H](CC(=O)O)C(=O)N[C@H](C(=O)N[C@@H](CCC(=O)O)C(=O)O)C(C)C [Tom20] (H-AQSLAEDDVE-OH) | 132 ± 12.6 | 35.3 ± 3.2 | – | – | competition with HRP-conjugated Hsp90 peptide for Tom70 binding [3]: unable to disrupt
6 | CSCC[C@H](NC(=O)[C@H](CC(N)=O)NC(=O)[C@H](CO)NC(=O)[C@H](Cc1ccc(O)cc1)NC(=O)[C@@H](NC(=O)[C@@H]1CCCN1)[C@@H](C)O)C(=O)N[C@@H](CCC(=O)O)C(=O)N[C@@H](CCC(=O)O)C(=O)N[C@H](C(=O)N[C@@H](CC(=O)O)C(=O)O)C(C)C [Usp19] (H-PTYSNMEEVD-OH) | 19.7 ± 2.55 | 18.8 ± 2.78 | – | – | –
7 | CSCC[C@H](NC(=O)[C@H](CCCCN)NC(=O)[C@H](CCC(=O)O)NC(=O)[C@H](CC(=O)O)NC(=O)[C@H](CC(=O)O)NC(=O)[C@@H](N)CO)C(=O)N1CCC[C@H]1C(=O)N[C@@H](CC(=O)O)C(=O)N[C@@H](CC(C)C)C(=O)N[C@@H](CCC(=O)O)C(=O)O [p23] (H-SDDEKMPDLE-OH) | 189 ± 12.9 | 55 ± 4.51 | – | – | –
8 | AQSLAEDDVE (also: HRP-conjugated, the 10 C-terminal residues of Tom20) [HRP-conjugated Tom20 peptide] | – | – | – | – | binding result [4]: binds
9 | PTYSNMEEVD (source: synthetic peptide (Peptide 2.0, Inc.), > 95% purity) [Usp19 peptide] | – | – | 9 | 19 | –
10 | FQNSLLYDLD (the 10 C-terminal residues of DNAAF2; source: synthetic peptide (Peptide 2.0, Inc.), > 95% purity) [DNAAF2 peptide] | – | – | 8 | 25 | –
11 | SDDEKMPDLE (the 10 C-terminal residues of p23 / PTGES3; also called p23 C-terminal peptide; source: synthetic peptide (Peptide 2.0, Inc.), > 95% purity) [p23 peptide] | – | – | 47 | 291 | –
12 | AEPQSLDGVD (the 10 C-terminal residues of NADSYN1; source: synthetic peptide (Peptide 2.0, Inc.), > 95% purity) [NADSYN1 peptide] | – | – | 18 | 28 | –
13 | EDASRMEEVD (the 10 C-terminal residues of Hsp90β; also called Hsp90 peptide; Hsp90β-derived peptide; source: synthetic peptide (Peptide 2.0, Inc.), > 95% purity) [Hsp90β peptide] | – | – | 18 | 16 | binding result [4]: binds
14 | EDASRMEEVD (also: HRP-conjugated, the 10 C-terminal residues of Hsp90β; also called HRP–Hsp90; Hsp90 peptide conjugated to HRP) [HRP-conjugated Hsp90β peptide] | – | – | – | – | binding result [4]: binds
15 | EKNSVNMDLD (the 10 C-terminal residues of Hsp105; source: synthetic peptide (Peptide 2.0, Inc.), > 95% purity) [Hsp105 peptide] | – | – | 6 | 40 | –
16 | AQSLAEDDVE (the 10 C-terminal residues of Tom20; also called Tom20 label-free peptide; unlabeled Tom20 peptide; source: synthetic peptide (Peptide 2.0, Inc.), > 95% purity) [Tom20 peptide] | – | – | 62 | 183 | –

— paper PMC6212638, “In silico identification and biochemical characterization of the human dicarboxylate clamp TPR protein interaction network” (FEBS Open Bio, 2018)
